Test results published in patent US20240117018A1.

Columns and labels:
Assay in all cases: cell-based or functional assay
[1] = target: Env of HIV-1 pseudovirus THRO4156.18 (HIV-1)
[2] = target: Env of HIV-1 pseudovirus Ce703010054_2A2 (HIV-1)
[3] = target: Env of HIV-1 pseudovirus CNE17 (HIV-1)
[4] = target: Env of HIV-1 pseudovirus Ce1172_H1 (HIV-1)
[5] = target: Env of HIV-1 pseudovirus ZM135M.PL10a (HIV-1)
[6] = target: Env of HIV-1 pseudovirus 1394C9G1(Rev-) (HIV-1)
[7] = target: Env of HIV-1 pseudovirus ZM249M.PL1 (HIV-1)
[8] = target: Env of HIV-1 pseudovirus 1006_11_C3_1601 (HIV-1)
[9] = target: Env of HIV-1 pseudovirus PVO.4 (HIV-1)
[10] = target: Env of HIV-1 pseudovirus CNE53 (HIV-1)
[11] = target: Env of HIV-1 pseudovirus TRJO4551.58 (HIV-1)
[12] = target: Env of HIV-1 pseudovirus CNE19 (HIV-1)
[13] = target: Env of HIV-1 pseudovirus 1056_10_TA11_1826 (HIV-1)
[14] = target: Env of HIV-1 pseudovirus CNE30 (HIV-1)
[15] = target: Env of HIV-1 pseudovirus T250-4 (HIV-1)
[16] = target: Env of HIV-1 pseudovirus Q842.d12 (HIV-1)
[17] = target: Env of HIV-1 pseudovirus MS208.A1 (HIV-1)
[18] = target: HIV-1 Env pseudovirus Du156.12 (HIV-1)
[19] = target: HIV-1 Env pseudovirus WEAU_d15_410_787 (HIV-1)
[20] = target: HIV-1 Env pseudovirus Ce703010054_2A2 (HIV-1)
[21] = target: HIV-1 Env pseudovirus WITO4160.33 (HIV-1)
[22] = target: HIV-1 Env pseudovirus 6535.3 (HIV-1)
[23] = target: HIV-1 Env pseudovirus SC422661.8 (HIV-1)
[24] = target: HIV-1 Env pseudovirus CNE17 (HIV-1)
[25] = target: HIV-1 Env pseudovirus REJO4541.67 (HIV-1)
[26] = target: HIV-1 Env pseudovirus CAP45.2.00.G3 (HIV-1)
[27] = target: HIV-1 Env pseudovirus CAAN5342.A2 (HIV-1)

Q: 10-1074 (antibody) was tested. Which IC50 [1] did it give?
A: > 50 mg/L

Q: And the IC80 [1]?
A: > 50 mg/L

Q: What about the IC50 [2] of the same substance?
A: > 50 mg/L

Q: What about the IC80 [2] of the same substance?
A: > 50 mg/L

Q: And the IC50 [3]?
A: 2.69 mg/L

Q: And the IC80 [3]?
A: 13.3 mg/L

Q: And the IC50 [4]?
A: 0.047 mg/L

Q: What about the IC80 [4] of the same substance?
A: 0.166 mg/L

Q: What about the IC50 [5] of the same substance?
A: 0.069 mg/L

Q: What about the IC80 [5] of the same substance?
A: 0.367 mg/L

Q: What about the IC50 [6] of the same substance?
A: 0.05 mg/L

Q: And the IC80 [6]?
A: 0.191 mg/L

Q: What about the IC50 [7] of the same substance?
A: > 50 mg/L

Q: And the IC80 [7]?
A: > 50 mg/L

Q: And the IC50 [8]?
A: 0.003 mg/L

Q: And the IC80 [8]?
A: 0.013 mg/L

Q: What about the IC50 [9] of the same substance?
A: 0.074 mg/L

Q: What about the IC80 [9] of the same substance?
A: 0.36 mg/L

Q: What about the IC50 [10] of the same substance?
A: 0.039 mg/L

Q: What about the IC80 [10] of the same substance?
A: 0.141 mg/L

Q: And the IC50 [11]?
A: 0.17 mg/L

Q: And the IC80 [11]?
A: 0.634 mg/L

Q: What about the IC50 [12] of the same substance?
A: 50 mg/L

Q: What about the IC80 [12] of the same substance?
A: > 50 mg/L

Q: What about the IC50 [13] of the same substance?
A: 0.038 mg/L

Q: What about the IC80 [13] of the same substance?
A: 0.272 mg/L

Q: What about the IC50 [14] of the same substance?
A: 0.363 mg/L

Q: What about the IC80 [14] of the same substance?
A: 1.2 mg/L

Q: And the IC50 [15]?
A: < 0.001 mg/L

Q: What about the IC80 [15] of the same substance?
A: 0.005 mg/L

Q: And the IC50 [16]?
A: > 50 mg/L

Q: What about the IC80 [16] of the same substance?
A: > 50 mg/L

Q: What about the IC50 [17] of the same substance?
A: > 50 mg/L

Q: What about the IC80 [17] of the same substance?
A: > 50 mg/L

Q: How did the IC50 [18] turn out when N49P7.2 (antibody) was run?
A: 0.058 mg/L

Q: What about the IC80 [18] of the same substance?
A: 0.21 mg/L

Q: And the MPI [18]?
A: 100

Q: And the IC50 [19]?
A: 0.052 mg/L

Q: And the IC80 [19]?
A: 0.15 mg/L

Q: And the MPI [19]?
A: 100

Q: And the IC50 [20]?
A: 0.124 mg/L

Q: And the IC80 [20]?
A: 0.576 mg/L

Q: And the MPI [20]?
A: 100

Q: And the IC50 [21]?
A: 0.051 mg/L

Q: And the IC80 [21]?
A: 0.215 mg/L

Q: And the MPI [21]?
A: 100

Q: And the IC50 [22]?
A: 0.152 mg/L

Q: And the IC80 [22]?
A: 0.784 mg/L

Q: What about the MPI [22] of the same substance?
A: 100

Q: What about the IC50 [23] of the same substance?
A: 0.119 mg/L

Q: And the IC80 [23]?
A: 0.564 mg/L

Q: What about the MPI [23] of the same substance?
A: 100

Q: What about the IC50 [24] of the same substance?
A: 0.376 mg/L

Q: What about the IC80 [24] of the same substance?
A: 1.24 mg/L

Q: What about the MPI [24] of the same substance?
A: 100

Q: What about the IC50 [25] of the same substance?
A: 0.018 mg/L

Q: What about the IC80 [25] of the same substance?
A: 0.08 mg/L

Q: And the MPI [25]?
A: 100

Q: And the IC50 [26]?
A: 0.162 mg/L

Q: And the IC80 [26]?
A: 2.49 mg/L

Q: What about the MPI [26] of the same substance?
A: 95

Q: And the IC50 [27]?
A: 0.809 mg/L

Q: What about the IC80 [27] of the same substance?
A: 2.81 mg/L

Q: What about the MPI [27] of the same substance?
A: 100

Q: For PG9 (antibody), which IC50 [1] is on record?
A: 24.5 mg/L

Q: And the IC80 [1]?
A: > 50 mg/L

Q: And the IC50 [2]?
A: 0.022 mg/L

Q: And the IC80 [2]?
A: 0.103 mg/L

Q: What about the IC50 [3] of the same substance?
A: 0.21 mg/L

Q: And the IC80 [3]?
A: 0.484 mg/L

Q: What about the IC50 [4] of the same substance?
A: 0.07 mg/L

Q: What about the IC80 [4] of the same substance?
A: 0.206 mg/L

Q: And the IC50 [5]?
A: 20.6 mg/L

Q: What about the IC80 [5] of the same substance?
A: > 50 mg/L

Q: What about the IC50 [6] of the same substance?
A: 0.029 mg/L

Q: What about the IC80 [6] of the same substance?
A: 0.114 mg/L

Q: What about the IC50 [7] of the same substance?
A: 0.166 mg/L

Q: What about the IC80 [7] of the same substance?
A: 1.41 mg/L

Q: What about the IC50 [8] of the same substance?
A: 0.366 mg/L

Q: And the IC80 [8]?
A: 1.91 mg/L

Q: And the IC50 [9]?
A: 10.6 mg/L

Q: What about the IC80 [9] of the same substance?
A: > 50 mg/L

Q: What about the IC50 [10] of the same substance?
A: 0.131 mg/L

Q: And the IC80 [10]?
A: 0.6 mg/L

Q: And the IC50 [11]?
A: 0.503 mg/L

Q: What about the IC80 [11] of the same substance?
A: 4.06 mg/L

Q: What about the IC50 [12] of the same substance?
A: 0.024 mg/L

Q: And the IC80 [12]?
A: 0.146 mg/L

Q: And the IC50 [13]?
A: 6.34 mg/L

Q: And the IC80 [13]?
A: 38.3 mg/L

Q: What about the IC50 [14] of the same substance?
A: > 50 mg/L

Q: And the IC80 [14]?
A: > 50 mg/L

Q: What about the IC50 [15] of the same substance?
A: 0.005 mg/L

Q: What about the IC80 [15] of the same substance?
A: 0.014 mg/L

Q: And the IC50 [16]?
A: 0.023 mg/L

Q: And the IC80 [16]?
A: 0.081 mg/L

Q: And the IC50 [17]?
A: 0.005 mg/L

Q: What about the IC80 [17] of the same substance?
A: 0.014 mg/L
